# Source: patent US20130129707A1, “ANTIMICROBIAL ACTIVITY ENHANCING AGENT” (priority 2010, published 2013)
# B1: LF: bovine lactoferrin (Morinaga Milk Industry) diluted with deionized water; 2 mg/mL in Samples 1 and 11 (protein, UniProt P24627 20-708, looked up)
# Lactotransferrin: APRKNVRWCTISQPEWFKCRRWQWRMKKLGAPSITCVRRAFALECIRAIAEKKADAVTLDGGMVFEAGRDPYKLRPVAAEIYGTKESPQTHYYAVAVVKKGSNFQLDQLQGRKSCHTGLGRSAGWIIPMGILRPYLSWTESLEPLQGAVAKFFSASCVPCIDRQAYPNLCQLCKGEGENQCACSSREPYFGYSGAFKCLQDGAGDVAFVKETTVFENLPEKADRDQYELLCLNNSRAPVDAFKECHLAQVPSHAVVARSVDGKEDLIWKLLSKAQEKFGKNKSRSFQLFGSPPGQRDLLFKDSALGFLRIPSKVDSALYLGSRYLTTLKNLRETAEEVKARYTRVVWCAVGPEEQKKCQQWSQQSGQNVTCATASTTDDCIVLVLKGEADALNLDGGYIYTAGKCGLVPVLAENRKSSKHSSLDCVLRPTEGYLAVAVVKKANEGLTWNSLKDKKSCHTAVDRTAGWNIPMGLIVNQTGSCAFDEFFSQSCAPGADPKSRLCALCAGDDQGLDKCVPNSKEKYYGYTGAFRCLAEDVGDVAFVKNDTVWENTNGESTADWAKNLNREDFRLLCLDGTRKPVTEAQSCHLAVAPNHAVVSRSDRAAHVKQVLLHQQALFGKNGKNCPDKFCLFKSETKNLLFNDNTECLAKLGGRPTYEEYLGTEYVTAIANLKKCSTSPLLEACAFLTR
# B2: angiogenin-2: bovine angiogenin-2, about 17 kDa component of peak α in Example 5 (SEQ ID NO: 7) (protein, listed as Bos taurus)
# chain: QNDAYRGFLRKHYDPSPTGHDDRYCNTMMERRNMTRPCKDTNTFIHGNSDDIRAVCDDRNGEPYRNGLRRSRSPFQVTTCRHRGGSPRPPCRYRAFRANRVIVIRCRDGFPIHLEENFIPPRP
# B3: Sample 14: Angiogenin-1 (32 μg/mL), bovine, about 15 kDa, separated by gel filtration HPLC in Example 5 (SEQ ID NO: 4) (protein, listed as Bos taurus)
# chain: AQDDYRYIHFLTQHYDAKPKGRNDEYCFNMMKNRRLTRPCKDRNTFIHGNKNDIKAICEDRNGQPYRGDLRISKSEFQITICKHKGGSSRPPCRYGATEDSRVIVVGCENGLPVHFDESFITPRH
# How the values were obtained:
# Type in all cases: cell-based
# [1] = tested on: Staphylococcus aureus JCM 2151; test: Minimum inhibitory concentration (MIC), absorbance at 630 nm; conditions: Test Example 6; MIC as lactoferrin concentration; 17 hours, 37° C.
# Protocol: (§1) By using 1% Bacto peptone medium (Becton Dickinson), each of Escherichia coli 0111, Cronobacter sakazaki ATCC 12868, Salmonella enteritidis IID 604, Klebsiella pneumoniae JCM 1662T, Pseudomonas aeruginosa MMI 603, Staphylococcus aureus JCM 2151 and Staphylococcus epidermidis JCM 2414T was inoculated to the medium contained in a polystyrene tube with a 5 ml capacity at a density of 10^6 cells/mL, and precultured in an incubator at 37° C. for 6 hours to obtain a cell suspension for the test.
# (§2) Each of the cell suspensions for the test was added to a 96-well plate at a cell density of 10^6 cells/mL together with each of the aforementioned samples, and culture was performed at 37° C. for 17 hours.
# (§3) After the culture for 17 hours, absorbance of the medium was measured at 630 nm using a microplate reader (Corona Electric). In addition, each bacterium was cultured only with the medium as a control, besides the culture using Samples 16 to 30.
# (§4) By using 1% Bacto peptone medium (Becton Dickinson), each of Escherichia coli 0111, Cronobacter sakazaki ATCC 12868, Klebsiella pneumoniae JCM 1662T, Pseudomonas aeruginosa MMI 603, and Staphylococcus aureus JCM 2151 was inoculated to the medium contained in a polystyrene tube with a 5 ml capacity at a density of 10^6 cells/mL, and precultured in an incubator at 37° C. for 6 hours to obtain a cell suspension for the test. In a similar manner, by using the PYG medium (1% Bacto peptone, 0.05% yeast extract (Becton Dickinson), 1% glucose (Wako Pure Chemical Industries)), Streptococcus mutans JCM 5705T was inoculated to the medium contained in a polystyrene tube with a 5 ml capacity at a density of 10^6 cells/mL, and precultured in an incubator at 37° C. for 6 hours to obtain a cell suspension for the test. Further, by using the Sabouraud medium (1% Bacto peptone, 2% glucose), Candida albicans TIMM1768 was inoculated to the medium contained in a polystyrene tube with a 5 ml capacity at a density of 10^6 cells/mL, and precultured in an incubator at 37° C. for 6 hours to obtain a cell suspension for the test.
# (§5) After the culture for 17 hours, absorbance of the medium was measured at 630 nm using a microplate reader (Corona Electric). In addition, each bacterium was cultured only with the medium as a control, besides the culture using Samples 31 to 41.
# [2] = tested on: Klebsiella pneumoniae JCM 1662T; test: as above; conditions: Test Example 6; MIC as lactoferrin concentration; 17 hours, 37° C.
# Protocol: as §1, §2, §3, §4, §5
# Escherichia coli O111 = test: as above; conditions: Test Example 6; MIC as lactoferrin concentration; 17 hours, 37° C.
# Protocol: as §1, §2, §3, §4, §5
# [3] = tested on: Pseudomonas aeruginosa MMI 603; test: as above; conditions: Test Example 6; MIC as lactoferrin concentration; 17 hours, 37° C.
# Protocol: as §1, §2, §3, §4, §5
# [4] = tested on: Cronobacter sakazaki ATCC 12868; test: as above; conditions: Test Example 6; MIC as lactoferrin concentration; 17 hours, 37° C.
# Protocol: as §1, §2, §3, §4, §5
# [5] = tested on: Escherichia coli K-12 strain (NBRC 3301); test: Antimicrobial activity enhancement test (colony count, CFU); conditions: culture 17 hours
# Protocol: In the antimicrobial activity enhancement test, antimicrobial activity of a sample obtained by mixing the antimicrobial activity enhancing agent of the present invention with lactoferrin or a lactoferrin hydrolysate was measured. As a control, antimicrobial activity of a sample containing only lactoferrin or a lactoferrin hydrolysate was also measured.
# By using 1% Bacto peptone medium, Escherichia coli K-12 strain was inoculated into the medium contained in a polystyrene tube with a 5 ml capacity, and precultured in an incubator at 37° C. for 6 hours to obtain a cell suspension for the test. The precultured Escherichia coli was added to a 96-well plate at a cell density of 10^6 cells/mL together with each of the aforementioned samples, and cultured at 37° C. for a predetermined time. After the culture for the predetermined time, the culture medium containing Escherichia coli was serially diluted with 0.85% physiological saline, and plated on an agar medium, and culture was performed at 37° C. for a predetermined time. Then, number of colonies (colony forming units:CFU) was measured.
# Antimicrobial activity of each sample was evaluated on the basis of the value of CFU. Degree of enhancement of the antimicrobial activity was calculated by comparison of the numbers of Escherichia coli (CFU) that remained after the test. For example, if CFU of Sample 1 is 100, and CFU of Sample 2 is 10 after the test, the antimicrobial activity of Sample 2 can be determined to be 10 times that of Sample 1. […]
# By using 1% Bacto peptone medium (Becton Dickinson), the Escherichia coli K-12 strain (NBRC 3301) was inoculated to the medium contained in a polystyrene tube with a 5 ml capacity at a density of 10^6 CFU/mL, and precultured in an incubator at 37° C. for 6 hours to obtain a cell suspension for the test.
# The cell suspension for the test was added to a 96-well plate at a cell density of 10^6 CFU/mL together with each of the aforementioned samples, and culture was performed at 37° C. for 17 hours.
# After the culture for 17 hours, the culture medium containing Escherichia coli was serially diluted with 0.85% physiological saline, and plated on an agar medium (Rapid Media RM-SPC, Morinaga Milk Industry), and then culture was performed at 37° C. for 16 hours. Then, number of the formed colonies (CFU: Colony Forming Unit) was measured to evaluate the antimicrobial activity of each sample.
# [6] = tested on: Streptococcus mutans JCM 5705T; test: Minimum inhibitory concentration (MIC), absorbance at 630 nm; conditions: Test Example 6; MIC as lactoferrin concentration; PYG medium; 17 hours, 37° C.
# Protocol: (§6) In a similar manner, by using the PYG medium (1% Bacto peptone, 0.05% yeast extract (Becton Dickinson), 1% glucose (Wako Pure Chemical Industries)), Streptococcus mutans JCM 5705T was inoculated to the medium contained in a polystyrene tube with a 5 ml capacity at a density of 10^6 cells/mL, and precultured in an incubator at 37° C. for 6 hours to obtain a cell suspension for the test. Further, by using the Sabouraud medium (1% Bacto peptone, 2% glucose), Candida albicans TIMM1768 was inoculated to the medium contained in a polystyrene tube with a 5 ml capacity at a density of 10^6 cells/mL, and precultured in an incubator at 37° C. for 6 hours to obtain a cell suspension for the test.
# as §2
# (§7) After the culture for 17 hours, absorbance of the medium was measured at 630 nm using a microplate reader (Corona Electric). In addition, each bacterium was cultured only with the medium as a control, besides the culture using Samples 16 to 30. […]
# (§8) After the culture for 17 hours, absorbance of the medium was measured at 630 nm using a microplate reader (Corona Electric). […]
# [7] = tested on: Candida albicans TIMM1768; test: as above; conditions: Test Example 6; MIC as lactoferrin concentration; Sabouraud medium; 17 hours, 37° C.
# Protocol: as §6, §2, §7, §8
# [8] = tested on: Staphylococcus epidermidis JCM 2414T; test: as above; conditions: Test Example 6; MIC as lactoferrin concentration; 17 hours, 37° C.
# Protocol: as §1, §2, §3
# [9] = tested on: Salmonella enteritidis IID 604; test: as above; conditions: Test Example 6; MIC as lactoferrin concentration; 17 hours, 37° C.
# Protocol: as §1, §2, §3
Molecule,MIC [1] [µg/mL],MIC [2] [µg/mL],MIC (Escherichia coli O111) [µg/mL],MIC [3] [µg/mL],MIC [4] [µg/mL],Change of Log10 CFU relative to control ([5]; Test Example 2),Survival rate based on control ([5]; Test Example 2) [%],Change of Log10 CFU relative to control ([5]; Test Example 5),Survival rate based on control ([5]; Test Example 5) [%],MIC [6] [µg/mL],MIC [7] [µg/mL],MIC [8] [µg/mL],MIC [9] [µg/mL],antimicrobial activity (in words) ([5]; Test Example 5)
B1,500,8000,2000,8000,8000,−2.472,0.337,−2.657,0.220,>8000,1000,1000,4000,–
B2,–,–,–,–,–,–,–,–,–,–,–,–,–,do not have antimicrobial activity
B3,–,–,–,–,–,–,–,0.160,144.654,–,–,–,–,do not have antimicrobial activity
